Data from PMC7486785 (Proceedings of the National Academy of Sciences of the …, 2020).

T1: Duck egg lysozyme (DEL), D65N + N103D double mutant of the DEL-II isoform (Anas platyrhynchos, DEL-II double mutant, strain)
T1 construct: duck egg lysozyme, DEL-II isoform, D65N + N103D double mutant; differs from HEL3X at 25 amino acids; source: Pichia pastoris, secreted, purified from culture supernatant (ion exchange)
T1 chain: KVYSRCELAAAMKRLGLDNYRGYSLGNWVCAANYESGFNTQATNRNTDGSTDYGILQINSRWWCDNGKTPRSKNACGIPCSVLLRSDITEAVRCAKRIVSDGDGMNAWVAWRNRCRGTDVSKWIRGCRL


Biological target: T1, Duck egg lysozyme (DEL), D65N + N103D …
Assay: BLI; BLItz (ForteBio); biotinylated Hy10 Fab variant immobilised on streptavidin biosensors (rehydrated in PBS with 0.1% wt/vol BSA); soluble monomeric lysozyme antigen as analyte at a range of concentrations; global fit, 1:1 Fab-lysozyme interaction
Settings: both partners purified

Ka [M⁻¹] | Kd [nM] | Binder
1.13e+08 | 8.85 | Hy10 Fab Y53F/Y58F (Fab, V domains shown, as the heavy chain of Dm5 with the stated changes; as the light chain of Dm5; source: Expi293, transient (pCEP4), purified (Talon resin, gel filtration)) VH: DVQLQESGPSLVKPSQTLSLTCSVTGDSITSDYWSWIRKFPGNRLEYMGYVSFSGSTFYNPSLKSRISITRDTSKNQYYLDLNSVTTEDTATYYCANWDGDYWGQGTLVTVSA VL: DIVLTQSPATLSVTPGNSVSLSCRASQSIGNNLHWYQQKSHESPRLLIKYASQSISGIPSRFSGSGSGTDFTLSINSVETEDFGMYFCQQSNSWPYTFGGGTKLEIK
2.98e+07 | 33.5 | Hy10 Fab S52T (Fab, V domains shown, as the heavy chain of Dm5 with the stated changes; as the light chain of Dm5; source: Expi293, transient (pCEP4), purified (Talon resin, gel filtration)) VH: DVQLQESGPSLVKPSQTLSLTCSVTGDSITSDYWSWIRKFPGNRLEYMGYVTYSGSTYYNPSLKSRISITRDTSKNQYYLDLNSVTTEDTATYYCANWDGDYWGQGTLVTVSA VL: DIVLTQSPATLSVTPGNSVSLSCRASQSIGNNLHWYQQKSHESPRLLIKYASQSISGIPSRFSGSGSGTDFTLSINSVETEDFGMYFCQQSNSWPYTFGGGTKLEIK
6.37e+07 | 15.7 | Hy10 Fab I29F (Fab, V domains shown, as the heavy chain of Dm5 with the stated changes; as the light chain of Dm5; source: Expi293, transient (pCEP4), purified (Talon resin, gel filtration)) VH: DVQLQESGPSLVKPSQTLSLTCSVTGDSFTSDYWSWIRKFPGNRLEYMGYVSYSGSTYYNPSLKSRISITRDTSKNQYYLDLNSVTTEDTATYYCANWDGDYWGQGTLVTVSA VL: DIVLTQSPATLSVTPGNSVSLSCRASQSIGNNLHWYQQKSHESPRLLIKYASQSISGIPSRFSGSGSGTDFTLSINSVETEDFGMYFCQQSNSWPYTFGGGTKLEIK
3.8e+08 | 2.62 | Hy10 Fab S52T/Y58F (Fab, V domains shown, as the heavy chain of Dm5 with the stated changes; as the light chain of Dm5; source: Expi293, transient (pCEP4), purified (Talon resin, gel filtration)) VH: DVQLQESGPSLVKPSQTLSLTCSVTGDSITSDYWSWIRKFPGNRLEYMGYVTYSGSTFYNPSLKSRISITRDTSKNQYYLDLNSVTTEDTATYYCANWDGDYWGQGTLVTVSA VL: DIVLTQSPATLSVTPGNSVSLSCRASQSIGNNLHWYQQKSHESPRLLIKYASQSISGIPSRFSGSGSGTDFTLSINSVETEDFGMYFCQQSNSWPYTFGGGTKLEIK
9.6e+06 | 104 | Hy10 Fab S31N (Fab, V domains shown, as the heavy chain of Dm5 with the stated changes; as the light chain of Dm5; source: Expi293, transient (pCEP4), purified (Talon resin, gel filtration)) VH: DVQLQESGPSLVKPSQTLSLTCSVTGDSITNDYWSWIRKFPGNRLEYMGYVSYSGSTYYNPSLKSRISITRDTSKNQYYLDLNSVTTEDTATYYCANWDGDYWGQGTLVTVSA VL: DIVLTQSPATLSVTPGNSVSLSCRASQSIGNNLHWYQQKSHESPRLLIKYASQSISGIPSRFSGSGSGTDFTLSINSVETEDFGMYFCQQSNSWPYTFGGGTKLEIK
1.99e+09 | 0.502 | Hy10 Fab S52T/Y53F/Y58F (Fab, V domains shown, as the heavy chain of Dm5 with the stated changes; as the light chain of Dm5; source: Expi293, transient (pCEP4), purified (Talon resin, gel filtration)) VH: DVQLQESGPSLVKPSQTLSLTCSVTGDSITSDYWSWIRKFPGNRLEYMGYVTFSGSTFYNPSLKSRISITRDTSKNQYYLDLNSVTTEDTATYYCANWDGDYWGQGTLVTVSA VL: DIVLTQSPATLSVTPGNSVSLSCRASQSIGNNLHWYQQKSHESPRLLIKYASQSISGIPSRFSGSGSGTDFTLSINSVETEDFGMYFCQQSNSWPYTFGGGTKLEIK
4.41e+06 | 227 | Hy10 Fab S56R (Fab, V domains shown, as the heavy chain of Dm5 with the stated changes; as the light chain of Dm5; also called Hy10-S56R; source: Expi293, transient (pCEP4), purified (Talon resin, gel filtration)) VH: DVQLQESGPSLVKPSQTLSLTCSVTGDSITSDYWSWIRKFPGNRLEYMGYVSYSGRTYYNPSLKSRISITRDTSKNQYYLDLNSVTTEDTATYYCANWDGDYWGQGTLVTVSA VL: DIVLTQSPATLSVTPGNSVSLSCRASQSIGNNLHWYQQKSHESPRLLIKYASQSISGIPSRFSGSGSGTDFTLSINSVETEDFGMYFCQQSNSWPYTFGGGTKLEIK
5.8e+06 | 172 | Hy10 Fab L4F/Y33H (Fab, V domains shown, as the heavy chain of Dm5 with the stated changes; as the light chain of Dm5; source: Expi293, transient (pCEP4), purified (Talon resin, gel filtration)) VH: DVQFQESGPSLVKPSQTLSLTCSVTGDSITSDHWSWIRKFPGNRLEYMGYVSYSGSTYYNPSLKSRISITRDTSKNQYYLDLNSVTTEDTATYYCANWDGDYWGQGTLVTVSA VL: DIVLTQSPATLSVTPGNSVSLSCRASQSIGNNLHWYQQKSHESPRLLIKYASQSISGIPSRFSGSGSGTDFTLSINSVETEDFGMYFCQQSNSWPYTFGGGTKLEIK
1.73e+08 | 5.79 | Hy10 Fab I29F/S52T (Fab, V domains shown, as the heavy chain of Dm5 with the stated changes; as the light chain of Dm5; source: Expi293, transient (pCEP4), purified (Talon resin, gel filtration)) VH: DVQLQESGPSLVKPSQTLSLTCSVTGDSFTSDYWSWIRKFPGNRLEYMGYVTYSGSTYYNPSLKSRISITRDTSKNQYYLDLNSVTTEDTATYYCANWDGDYWGQGTLVTVSA VL: DIVLTQSPATLSVTPGNSVSLSCRASQSIGNNLHWYQQKSHESPRLLIKYASQSISGIPSRFSGSGSGTDFTLSINSVETEDFGMYFCQQSNSWPYTFGGGTKLEIK
6.1e+09 | 0.164 | Hy10 Fab I29F/S52T/Y53F (Fab, V domains shown, as the heavy chain of Dm5 with the stated changes; as the light chain of Dm5; source: Expi293, transient (pCEP4), purified (Talon resin, gel filtration)) VH: DVQLQESGPSLVKPSQTLSLTCSVTGDSFTSDYWSWIRKFPGNRLEYMGYVTFSGSTYYNPSLKSRISITRDTSKNQYYLDLNSVTTEDTATYYCANWDGDYWGQGTLVTVSA VL: DIVLTQSPATLSVTPGNSVSLSCRASQSIGNNLHWYQQKSHESPRLLIKYASQSISGIPSRFSGSGSGTDFTLSINSVETEDFGMYFCQQSNSWPYTFGGGTKLEIK
9.35e+07 | 10.7 | Hy10 Fab Y58F (Fab, V domains shown, as the heavy chain of Dm5 with the stated changes; as the light chain of Dm5; source: Expi293, transient (pCEP4), purified (Talon resin, gel filtration)) VH: DVQLQESGPSLVKPSQTLSLTCSVTGDSITSDYWSWIRKFPGNRLEYMGYVSYSGSTFYNPSLKSRISITRDTSKNQYYLDLNSVTTEDTATYYCANWDGDYWGQGTLVTVSA VL: DIVLTQSPATLSVTPGNSVSLSCRASQSIGNNLHWYQQKSHESPRLLIKYASQSISGIPSRFSGSGSGTDFTLSINSVETEDFGMYFCQQSNSWPYTFGGGTKLEIK
